Data reported in publication PMC12109719, “Synergistic Signal Amplification via Weak Value Amplification Effect and Sandwich Structure for Highly Sensitive and Specific Real-Time Detection of CA125”.

Legend:
human IgG (human) = assay: imaging weak measurement, aptamer-antibody sandwich; settings: 25 ng/mL; CA125 antibody (CA125 gave 665.83 a.u.); 5'-NH2; PBS+ (10 mM PBS, 5 mM MgCl2) as reference channel; aptamer 2 uM immobilized on polydopamine-coated prism, 2% blocking solution; readout at 55 min; pH and …
human IgE (human) = assay: as above; settings: 25 ng/mL; CA125 antibody (CA125 gave 665.83 a.u.); 5'-NH2; PBS+ (10 mM PBS, 5 mM MgCl2) as reference channel; aptamer 2 uM immobilized on polydopamine-coated prism, 2% blocking solution; readout at 55 min; pH and …
[1] = target: CA125 (carbohydrate antigen 125) (UniProt Q8WXI7 1-14451); assay: imaging weak measurement, aptamer-antibody sandwich; CA125 50 U/mL; CA125 antibody; PBS+ (10 mM PBS, 5 mM MgCl2) as reference channel; aptamer 2 uM immobilized on polydopamine-coated prism, 2% blocking solution; readout at 55 min; pH and temperature not stated; settings: protein: commercial

Row | Molecule | binding signal (human IgG (human)) [a.u.] | binding signal (human IgE (human)) [a.u.] | binding signal [1] [a.u.]
1 | CTCACTACTATAGGGATAGGGAGACAAGAATAAACGCTCAA [CA125-1 aptamer] | < 35 | < 35 | 
2 | TATCAATTACTTACCCTAGTGGTGTGATGTCGTATGGATG (ssDNA, 5'-NH2-C6) [CA125-3 aptamer] |  |  | 647
3 | TTATCGTACGACAGTCATCCTACAC (ssDNA, 5'-NH2-C6) [CA125-2 aptamer] |  |  | 695
4 | CTCACTACTATAGGGATAGGGAGACAAGAATAAACGCTCAA (ssDNA, 5'-NH2) [CA125-1 aptamer] |  |  | 735
